Reference: patent US11672846B2, “Soluble bacterial and fungal proteins and methods and uses thereof in inhibiting and dispersing biofilm” (priority 2014, dated 2023)
Entries after “also recorded” stand apart in the source; their conditions may differ. Where two headings read alike, the source gives them in different places.

How the values were obtained:
[1] = Reducing sugar assay on dPNAG; assay type: biochemical, S. aureus
Method: Isolated dPNAG from S. aureus strain MN8m was solubilized in 6 N HCl at ˜10 mg/mL. 10 N NaOH was used to titrate the re-suspension until neutrality was reached, ˜pH 7-8. In a 50 μL reaction, 1 μM BpsB318-670 was incubated with 1-5 mg/mL of dPNAG in 100 mM HEPES pH 7.0 for 18 hours. The sample was split into two 20 μL aliquots and treated with DTT/3-Methyl-2-benzothiazolinone hydrazone hydrochloride hydrate and heated at 80° C. for 15 minutes. A solution of 0.5% (w/w) iron (III) ammonium sulfate dodecahydrate, 0.5% (w/w) sulfamic acid, and 0.25 N hydrochloric acid was added, mixed, and cooled to room temperature. […] Protein and dPNAG in buffer H were used as background controls.

[2] = system: PNAG-overproducing E. coli biofilms; assay: Dispersal of pre-formed PNAG-dependent E. coli biofilms
Method: Bacterial cultures expressing Psl were inoculated as stated above and were grown at 37° C. overnight with shaking at 200 rpm. All cultures were diluted in 1:100 in LB and arabinose was added to a final concentration of 0.5% (w/v) to induce Psl biosynthesis. Media containing the Psl-producing cultures were supplemented with 200 μg/mL ampicillin and 100 μg/mL kanamycin. The cultures were incubated statically for 24 h at 26° C. to allow for biofilm formation. After incubation non-adherent cells and media were removed by washing the plate with deionized water three times. The wells were filled with 95 μL of 100 mM sodium HEPES buffer pH 7.0 followed by 5 μL of varying concentrations of each hydrolytic enzyme (2 nM-5 μM). Reactions were allowed to proceed for up to 60 min at 25° C. on a rotating nutator at which time, the reaction was quenched by washing the plates with deionized water. The wells were stained with 200 μL of 0.1% (w/v) crystal violet for 10 min, and washed with water three times. Crystal violet dye from Psi cultures was solubilized in 100 μL of 95% ethanol for 10 min with rotation, after which time the absorbance was measured at 595 nm using a SpectraMax M2 from Molecular Devices (Sunnyvale, Calif.). The amount of biofilm is proportional to the absorbance from staining with crystal violet (Merritt et al 2005). All reactions were completed in at least triplicate and 100 mM sodium HEPES buffer pH 7.0 was used as an untreated control. The addition of 2.5 mg/mL kanamycin to culture prior to biofilm formation was used as a positive control as no cell growth occurs.
PNAG-overproducing E. coli was grown at 37° C. overnight in LB broth supplement with 200 ug/mL ampicillin and 100 ug/mL kanamycin with shaking at 200 rpm. An E. coli μgaABCD knockout strain was used as a non-biofilm forming control for background straining.

[3] = system: S. carnosus; assay: Inhibition of PNAG-dependent S. carnosus biofilm formation; settings: 5 μM, preliminary testing
Method: In brief, PNAG-overproducing E. coli or S. carnosus was grown at 37° C. overnight in LB broth supplement with 200 μg/mL ampicillin and 100 μg/mL kanamycin, and 10 μg/mL tetracycline, respectively, with shaking at 200 rpm. Fresh cultures with antibiotic were prepared from the overnight culture using a 1:100 dilution, using LB broth for E. coli, and tryptic soy broth for S. carnosus. 95 μL of diluted culture was added to a sterile 96-well polystyrene round bottom microtiter plate and varying concentrations of protein (2 nM-5 μM) were added in 5 μL aliquots to give a final volume of 100 μL. The cultures were incubated statically for 24 h at 26° C. for E. coli, and 37° C. for S. carnosus, to allow for biofilm formation. To eliminate edge-effects, ˜200 μL of sterile water was placed in all outside wells and the plate was sealed with parafilm. After incubation non-adherent cells and media were removed by washing the plate with deionized water three times. The wells were stained with 150 μL of 0.1% (w/v) crystal violet for 10 min, and washed with water three times. The remaining dye was solubilized with 100 μL of 33% (v/v) acetic acid for 10 min with rotation, after which time the absorbance was measured at 595 nm using a SpectraMax M2 from Molecular Devices (Sunnyvale, Calif.). […] All reactions were completed in at least triplicates and buffer G was used as an untreated control. […]

[4] = system: PNAG-overproducing E. coli; assay: Inhibition of PNAG-dependent E. coli biofilm formation (crystal violet); settings: read-out: EC50 of E. coli biofilm formation prevention, static 24 h at 26° C.
Method: In brief, PNAG-overproducing E. coli or S. carnosus was grown at 37° C. overnight in LB broth supplement with 200 μg/mL ampicillin and 100 μg/mL kanamycin, and 10 μg/mL tetracycline, respectively, with shaking at 200 rpm. Fresh cultures with antibiotic were prepared from the overnight culture using a 1:100 dilution, using LB broth for E. coli, and tryptic soy broth for S. carnosus. 95 μL of diluted culture was added to a sterile 96-well polystyrene round bottom microtiter plate and varying concentrations of protein (2 nM-5 μM) were added in 5 μL aliquots to give a final volume of 100 μL. The cultures were incubated statically for 24 h at 26° C. for E. coli, and 37° C. for S. carnosus, to allow for biofilm formation. To eliminate edge-effects, ˜200 μL of sterile water was placed in all outside wells and the plate was sealed with parafilm. After incubation non-adherent cells and media were removed by washing the plate with deionized water three times. The wells were stained with 150 μL of 0.1% (w/v) crystal violet for 10 min, and washed with water three times. The remaining dye was solubilized with 100 μL of 33% (v/v) acetic acid for 10 min with rotation, after which time the absorbance was measured at 595 nm using a SpectraMax M2 from Molecular Devices (Sunnyvale, Calif.). […] All reactions were completed in at least triplicates and buffer G was used as an untreated control. Either an E. coli pgaABCD knockout strain (DPGA) or S. carnosus treated with gentamycin, was used as a control for background straining.

[5] = system: A. fumigatus GAG biofilm; assay: Inhibition of GAG-dependent A. fumigatus biofilm formation (crystal violet); assay type: cell-based
[6] = system: pre-formed A. fumigatus GAG biofilms; assay type: cell-based; settings: crystal violet
[7] = system: Pel biofilms of P. aeruginosa PAO1 ΔwspFΔpslpBADpel; assay: Dispersal of pre-formed Pel biofilms (crystal violet)
Source text: The methodology to generate pre-formed Pel biofilms is identical to that of Psl biofilms, described in Example 4 with the exception that the strain used is P. aeruginosa PAO1 ΔwspFΔpslpBADpel.

[8] = system: P. aeruginosa PAO1 ΔwspFΔpslpBADpel; assay: Inhibition of Pel biofilm formation in static culture (crystal violet)
[9] = system: Trichosporon asahii; assay: SBA-FITC lectin staining of Trichosporon asahii after hydrolase treatment; assay type: cell-based; settings: 0.5 μM, 3 h
Method: To assess the effects of hydrolase treatment on Trichosporon asahii, 1×10^5 T. asahii yeast cells or A. fumigatus conidia were inoculated in Dulbecco's Modified Eagle Medium (DMEM), and grown for 10 h at 37° C., 5% CO2 on glass coverslips. Wells were gently washed once with Ham's F-12K (Kaighn's) Medium (F12K) media, and Sph3AC(54-304) was added at a final concentration of 0.5 μM in F12K, and incubated for an additional 3 h at 37° C., 5% CO2. Young hyphae were washed twice with PBS, and stained with FITC tagged SBA for 1 h. The stained samples were washed with PBS and fixed with 4% PFA for 15 min. Slides were then mounted, sealed, and imaged under confocal microscopy with a 488 nm laser (Zeiss).

[10] = system: RFP-expressing Af293 hyphae; assay: Uptake of Bodipy-conjugated posaconazole by hyphae (confocal microscopy); assay type: cell-based, A. fumigatus; settings: 0.5 μM pretreatment 90 min
Method: Red Fluorescent Protein (RFP)-expressing Af293 hyphae were pretreated with 0.5 μM Sph3AC(54-304) hydrolase for 90 min before treatment with Bodipy-conjugated posaconazole (BDP-PCZ). At various time points, samples were fixed and imaged using fluorescent confocal microscopy to determine the kinetics of drug penetration of hyphae.

[11] = system: Botrytis cinerea isolate 7b1; assay: Lectin staining of Botrytis cinerea hyphae after hydrolase treatment; assay type: cell-based; settings: 1 μM
Method: Botrytis cinerea isolate 7b1 was inoculated at a concentration of 6×10^3 conidia/ml in 500 μl of Brian media on poly-D-lysine-coated coverslips (Corning, Bedford, Mass.) for 17 h at room temperature, in the dark. Samples were incubated either in the presence or absence of 1 μM Sph3AC(54-304). Media was then removed and the hyphae were incubated in PBS with or without 1 μM Sph3AC(54-304) for 1 h at room temperature. Samples were washed twice with PBS, and stained with 30 μg/mL of Wisteria fluoribunda (WFL) lectin conjugated to fluoresceine for 2 h at 4° C. Samples were washed twice with PBS, and fixed with 4% paraformaldehyde for 10 min at 4° C. Samples were washed once and stained with a 1:1000 dilution of DRAQ5™ (eBioscience, San Diego, Calif.) for 5 min at room temperature. Samples were washed once with PBS, mounted onto microscope slides using SlowFade® Gold antifade reagent (life Technologies™, Eugene, Oreg.), and sealed with nail polish. Images were acquired on an Olympus Fluoview confocal laser microscope using 488 and 633 nm lasers coupled with BA505-525 and BA650IF filters, respectively. Z-stacks of 0.2 μm increments were acquired, and 3D-rendered using ImageJ software (National Institutes of Health).

[12] = system: A549 pulmonary epithelial cell line injured by A. fumigatus; assay: Chromium release epithelial cell damage assay; settings: recombinant Sph3 hydrolases, up to 24 h
Method: The immortalized airway epithelial cell line A549 was loaded with chromium-51 by incubating monolayers grown in 24-well tissue culture plates with 3 mCi of ^51Cr at 37° C. in 5% CO2 for 24 h. Excess chromium was removed by washing with Hank's Balanced Salt Solution (HBSS). […] For testing germ tubes, conidia were grown for 7 h in SAB media at 37° C., then the fungus was collected and resuspended in DF12K media before 0.5 μM of hydrolase was added. The germ tubes were incubated with hydrolase for 1 h before being added to the A549 cells. After 16, 20 and 24 h of co-incubation, an aliquot of the medium above the cells was retrieved and replaced with fresh media. The cells were then lysed with 6 N NaOH and the lysate collected. The ^51Cr content of the medium and lysates was then measured in a gamma counter and the extent of epithelial cell damage was calculated as a function of the degree of ^51Cr release. Each strain was tested in triplicate, and all results were corrected for spontaneous chromium release by uninfected epithelial cells.
The methodology for prevention of epithelial cell damage caused by A. fumigatus using Sph352-298 is identical to that previously described in Example 19 for the use PelA47-303.

[13] = system: A. fumigatus; assay: Ega3 inhibition of A. fumigatus biofilm formation (crystal violet, imaged); assay type: cell-based; settings: 1 μM, 18 h
Method: A. fumigatus conidia were inoculated into polystyrene, round-bottom 24-well plates at a concentration of 10^5 conidia/well in DMEM media. To assess the inhibition of biofilm formation, Ega346-318 was added at a final concentration of 1 μM and the conidia incubated for 18 h at 37° C., 5% CO2. The resulting biofilms were then gently washed twice with distilled water, and stained with 0.1% crystal violet for 10 min. Samples were washed twice with water and the wells were imaged.

[14] = system: preformed A. fumigatus biofilm; assay: Ega3 disruption of preformed A. fumigatus biofilm; assay type: cell-based; settings: 1 μM, 1.5 h, room temperature
Method: To determine the effect hydrolase has on a preformed biofilm, 10^5 A. fumigatus conidia were inoculated per well in DMEM media as above, but in the absence of hydrolase. Following 18 h incubation at 37° C., 5% CO2, the resulting biofilm was treated with Ega346-318 at a final concentration of 1 μM for 1.5 h at room temperature on a nutator. The biofilms were then washed and stained as mentioned above.

[15] = system: A. fumigatus hyphae; assay: SBA-FITC lectin staining of A. fumigatus hyphae after Ega3 treatment; assay type: cell-based; settings: 0.5 μM, 3 h
[16] = system: P. aeruginosa PAO1 pBADpsl; assay: Inhibition of Psl biofilm formation in static culture (crystal violet); assay type: cell-based, Pseudomonas aeruginosa
[17] = system: Psl biofilms of P. aeruginosa PAO1 pBADpsl; assay: Dispersal of pre-formed Psl biofilms (crystal violet); assay type: cell-based, Pseudomonas aeruginosa
[18] = purified protein

B1: BpsB318-670: BpsB C-terminal hydrolase domain residues 318-670, SEQ ID NO: 19 (protein, listed as Bordetella bronchiseptica)
chain: PIERIVQVDLDYIYDPDPEQQNRNLGQLIDRMKDLAPSAVYLQAFADPKGDGDITEVYFPNRHLPMRADLFNRVAWQLKTRAGVMVYAWLPVLTFSVPPGNPAYGKVVQSTTRKPGERGLGSPTRLSPFHPDAHRVISEIYEDLAKAAHFDGLLFHDDAVLDDTEDSSPEALATYQGWGLPPDIAAIRADPKLAQQWSKGKIRYLIDFTMHLRHIVSGYQNDRDMVVARNLYAQPVLDPVSEAWYGQSLPEFLKSYDFVALMAMPNMEGAARPEQWMRQLVAAVARQKGLDRTIFELQARDWRVGKPIDTEILRRQMVQLRSLGAINYGYYPDDFIANHPDAEALRDVMSLKS
- dPNAG hydrolysis (in words) [1]: hydrolyze dPNAG
- EC50 ([2]; read-out: EC50 of degradation of pre-formed E. coli biofilm, 60 min, average starting OD595 of 0.5): ~90 nM
- inhibition of S. carnosus biofilm formation (in words) [3]: can inhibit biofilm formation
- EC50 [4]: ~60 nM

B2: PelA35-291: PelA residues 35-291 from P. protogens Pf-5, SEQ ID NO: 13 (protein, listed as Pseudomonas protogens)
chain: AAPASVGFWYAEQPPLQELAQFEWAVVEPGHMASADVATLRKLGSQPFAYLSVGEFDGNRAALAKQALAQGASPVRNKAWDSQVMDIATPAWREHLFKRAKALQDQGYAGLFLDTLDSFQLLPEADREPQRKALASFLRELHSRLPNLKLFFNRGFEVLGELDGVASAVAVESIHAGWDASAKRYRPVSEADRTWLEGELKPLRARNIPLVAIDYLPANRREEARKLVRQLSQEGFIPVVTTPDLNALSMSTVEVQP
- prevention of GAG biofilm formation (in words) ([5]; 20 h in Brian media, crystal violet, listed as P. protogens PelA35-291): shown to prevent GAG-dependent biofilm formation
- dispersal of pre-formed GAG biofilm (in words) [6]: elimination of the GAG biofilm
- dispersal of pre-formed GAG biofilm (in words) ([6]; listed as P. protogens PelA35-291): elimination of the GAG biofilms
- time to disperse pre-formed Pel biofilm ([7]; 1 μM enzyme): 30 min
- dispersal of pre-formed Pel biofilm (in words) ([7]; 10-fold dilution of 1 μM, 1 h): disperse nearly all the biofilm
- EC50 ([8]; read-out: EC50 of Pel biofilm inhibition, static PAO1ΔwspFΔpslPBADpel culture): 69.3 ± 1.2 nM

B3: Sph3AC(54-304): Sph3 ortholog residues 54-304, Aspergillus clavatus NRRL 1, SEQ ID NO: 22 (protein, listed as Aspergillus clavatus)
chain: MGPKSKVFVPLYVYPAPGAWDPLEDVISKHPDVNFTVVINPGSGPGPEALPDGNYTREIPKLASYENVRLLGYVATTYAKRNISEVRRDIETYAAWPTQSSNANLAVRGIFFDETPQQYDADILAYLRELTDVVKGTSGLGPDHYVVHNPGAIPDSRYLSTADSTVVFEATYATFQERHGAELFDTIPDSHRDQLCAVIHSVPTSVEGSDLRGLVKQVRQVADEIFITHLETDYYAGFGGQWSEFVDLMAS
- inhibition of A. fumigatus biofilm formation by recombinant Sph3 (in words) [5]: inhibit the formation of A. fumigatus biofilms in a dose dependent manner
- dispersal of pre-formed GAG biofilm (in words) [6]: capable of disrupting GAG-dependent biofilms
- surface GalNAc exopolysaccharide of T. asahii after treatment [9]: complete loss
- uptake of fluorescent-tagged posaconazole by hyphae [10]: increases the activity of antifungals; also recorded: increased the speed and degree of uptake
- GAG exopolysaccharide on B. cinerea hyphae after treatment [11]: complete loss of this exopolysaccharide
- epithelial cell damage by A. fumigatus, chromium release [12]: completely protected epithelial cells from damage by A. fumigatus for 24 h
- epithelial cell damage by A. fumigatus, chromium release ([12]; listed as Sph3 from A. clavatus): reduced fungal damage to epithelial cells

B4: Ega346-318: soluble Ega3 residues 46-318, Aspergillus fumigatus Af293, SEQ ID NO: 21 (protein, listed as Aspergillus fumigatus)
chain: GLGGGGGGEGEEGSGGETTPPEGNYTTAKWQPAVGTKWQIELLYALNDTSVDAEIYDIDLFINDKSTIAGLQRAGRKVICYFSAGSYENWRPDKDKFKDSDLGHDLDDWPGEKWLNISSANVRQIMLDRLDMARDKGCDGVDPDNVDGYDNDNGLDLTQADSISFVNFLANAAHARNMSIGLKNAGDIIPSVIKNMQWSVNEQCAQYNECDTYAVFPQNGKPVFHIEYPKGDKTNNDLSVTASQKNAACDFAGSANFSTVIKNMNLNNWVEYC
- A. fumigatus biofilm formation / adherence in presence of enzyme [13]: prevented biofilm formation; also recorded: completely non-adherent
- effect on preformed 18 h A. fumigatus biofilm [14]: allowed for disruption of the biofilm
- detectable GalNAc on hyphal surface after treatment [15]: complete loss of detectable

B5: PslG31-442: soluble PslG glycosyl hydrolase construct, residues 31-442, P. aeruginosa PAO1, SEQ ID NO: 11 (protein, listed as Pseudomonas aeruginosa)
chain: EIQVLKAPRAVVWKDFLGVNAQFLWFSPERYNKQIDRLQDLGLEWVRLDLHWDRLETAEDQYQLASLDQLVKDLEARQLKSVFYLVGSARFITTAPFYSPFQDQYPPRDPEVFARRMAMLSQRYPSVAAWQVWNEPNLIGFWRPKADPEGYAKLLQASTIALRMVDPEKPVVSAGMAFFSEMPDGRTMFDALGHLGVESLGTIATYHPYTQLPEGNYPWNLDFVSHANQINRALRNAGVPAIWSTEWGWSAYKGPKELQDIIGVEGQADYVLRRLALMSALDYDRIFLFTLSDLDQRASVRDRDYGLLDLDANPKPVYLALQRFLKVTGPKLRPADPPVTEDLPDGSFSIGWTREDGRNVWLFWSARGGNVRLPKLKEATLHDPLSGKVTPLSGSDGLEVPVKSSLQMLVWE
- effect on PAO1 growth ([16]; 10 μM enzyme): did not prevent PAO1 growth
- EC50 ([16]; PAO1 pBADpsl, static 24 h at 26° C., crystal violet): 4.1 ± 1.1 nM
- time to disperse pre-formed Psl biofilm ([17]; 58 nM enzyme): 30 min
- time to disperse / completely abolish pre-formed Psl biofilm ([17]; 86 nM enzyme): 35 min
- effect on pre-formed Psl biofilm ([17]; 86 nM enzyme, after 20 min): significant reduction of the biofilm
- concentration to which the protein could be concentrated [18]: 8000 to 10000 µg/mL
- dispersal of PNAG-dependent biofilms (in words) [2]: had no affect
- inhibition of Pel biofilm formation (in words) ([8]; specificity control): did not inhibit Pel biofilm formation; also recorded: unable at preventing biofilm formation
